# Experimental data published in article PMC8500459, “Novel Homologs of Isopentenyl Phosphate Kinase Reveal Class‐Wide Substrate Flexibility” (Chemcatchem, 2021).
# Assays:
# [1] = substrate: CC(C)=CCOP(=O)(O)O; assay: purified protein; conditions: ATP 1 mM (2 mM in methods), 25 mM Tris pH 7.8, 5 mM MgCl2, 37 °C
# [2] = substrate: C=C(C)CCOP(=O)(O)O; assay: PK-LDH coupled assay, NADH A340; format: biochemical, Methanohalophilus mahii; conditions: ATP 1 mM (2 mM in methods), 25 mM Tris pH 7.8, 5 mM MgCl2, 37 °C
# [3] = substrate: O=P(O)(O)OCc1ccccc1; assay: PK-LDH coupled assay, NADH A340; format: biochemical, Methanohalophilus mahii; conditions: ATP 1 mM (2 mM in methods), 25 mM Tris pH 7.8, 5 mM MgCl2, 37 °C
# [4] = substrate: Nc1ncnc2c1ncn2[C@@H]1O[C@H](COP(=O)(O)OP(=O)(O)OP(=O)(O)O)[C@@H](O)[C@H]1O; assay: PK-LDH coupled assay, NADH A340; format: biochemical, Methanohalophilus mahii; conditions: isopentenyl phosphate (1) 1 mM, 25 mM Tris pH 7.8, 5 mM MgCl2, 37 °C
# [5] = substrate: C=C(C)CCOP(=O)(O)O; assay: PK-LDH coupled assay, NADH A340; format: biochemical, Thermococcus paralvinellae; conditions: ATP 1 mM (2 mM in methods), 25 mM Tris pH 7.8, 5 mM MgCl2, 37 °C
# [6] = substrate: O=P(O)(O)OCc1ccccc1; assay: PK-LDH coupled assay, NADH A340; format: biochemical, Thermococcus paralvinellae; conditions: ATP 1 mM (2 mM in methods), 25 mM Tris pH 7.8, 5 mM MgCl2, 37 °C
# [7] = substrate: Nc1ncnc2c1ncn2[C@@H]1O[C@H](COP(=O)(O)OP(=O)(O)OP(=O)(O)O)[C@@H](O)[C@H]1O; assay: PK-LDH coupled assay, NADH A340; format: biochemical, Thermococcus paralvinellae; conditions: isopentenyl phosphate (1) 1 mM, 25 mM Tris pH 7.8, 5 mM MgCl2, 37 °C
# [8] = substrate: C=C(C)CCOP(=O)(O)O; assay: PK-LDH coupled assay, NADH A340; format: biochemical, Methanosarcina barkeri; conditions: ATP 1 mM (2 mM in methods), 25 mM Tris pH 7.8, 5 mM MgCl2, 37 °C
# [9] = substrate: O=P(O)(O)OCc1ccccc1; assay: PK-LDH coupled assay, NADH A340; format: biochemical, Methanosarcina barkeri; conditions: ATP 1 mM (2 mM in methods), 25 mM Tris pH 7.8, 5 mM MgCl2, 37 °C
# [10] = substrate: Nc1ncnc2c1ncn2[C@@H]1O[C@H](COP(=O)(O)OP(=O)(O)OP(=O)(O)O)[C@@H](O)[C@H]1O; assay: PK-LDH coupled assay, NADH A340; format: biochemical, Methanosarcina barkeri; conditions: isopentenyl phosphate (1) 1 mM, 25 mM Tris pH 7.8, 5 mM MgCl2, 37 °C
# [11] = substrate: C=C(C)CCOP(=O)(O)O; assay: PK-LDH coupled assay, NADH A340; format: biochemical, Candidatus Nitrososphaera gargensis; conditions: ATP 1 mM (2 mM in methods), 25 mM Tris pH 7.8, 5 mM MgCl2, 37 °C
# From the text: (§1) PK-LDH coupled assay, NADH A340 on CNG
# [12] = substrate: O=P(O)(O)OCc1ccccc1; assay: PK-LDH coupled assay, NADH A340; format: biochemical, Candidatus Nitrososphaera gargensis; conditions: ATP 1 mM (2 mM in methods), 25 mM Tris pH 7.8, 5 mM MgCl2, 37 °C
# From the text: as §1
# [13] = substrate: Nc1ncnc2c1ncn2[C@@H]1O[C@H](COP(=O)(O)OP(=O)(O)OP(=O)(O)O)[C@@H](O)[C@H]1O; assay: PK-LDH coupled assay, NADH A340; format: biochemical, Candidatus Nitrososphaera gargensis; conditions: isopentenyl phosphate (1) 1 mM, 25 mM Tris pH 7.8, 5 mM MgCl2, 37 °C
# From the text: as §1
protein,measurement,setting,value
"MHM (Methanohalophilus mahii DSM 5219) (protein, N-His6 fusion, pET28a NdeI/EcoRI, codon-optimised synthetic gene, E. coli Rosetta2, Ni-NTA) MNEKNSDITILKIGGSVITDKSSNEGIVREKAIIRIAREISFFEGPLIIVHGAGSFGHPQAKRYSLAYKFSAEGSGVTHRSVASLNELFVNALAQRNVNAVGIHPMGCLVAKEGRISKSFLLAIQMMLEKGITPVLHGDVVMDTVKGSSVISGDQIVPYLASKLNAYRIGVGSAEDGVLDEHGHPIPLITPDNFEIASMHIGGSENTDVTGGMLGKVKEMLDMSRQTKVPSYIFNANAGGNVMSFLRGEMIGTAIKDKA",Km,[1],36 ± 4 µM
same,kcat,[1],4.1 s⁻¹
same,kcat/Km,[1],120000 M⁻¹ s⁻¹
same,Km,[2],50 ± 10 µM
same,kcat,[2],5.2 ± 0.4 s⁻¹
same,kcat/Km,[2],100000 M⁻¹ s⁻¹
same,Km,[3],70 ± 10 µM
same,kcat,[3],0.139 ± 0.008 s⁻¹
same,kcat/Km,[3],1900 M⁻¹ s⁻¹
same,Km,[4],100 ± 30 µM
same,kcat,[4],6.3 ± 0.3 s⁻¹
same,kcat/Km,[4],63000 M⁻¹ s⁻¹
"TCP (Thermococcus paralvinellae) (protein, N-His6 fusion, pET28a NdeI/EcoRI, codon-optimised synthetic gene, E. coli Rosetta2, Ni-NTA) MIIIKLGGSVISDKEKEYSFHRHIVEQIAEEIAQFYPDESFILVHGGGSFGHPNAREYKITEGLVGDVDRKRIGFSKTHQAMLKLNDLIIQTFLEKGLPAYSVSSSSIFLLENKEVVYGELEILRKLLELKFIPVLFGDTAIALDKGIDILSGDQIVSYLAKMLKPSKVIFLMDVDGIYDRNPKERDAKLIEELNVEEIRHLLESSESAGIDVTGGIGNKLREALKIAKHSEVYFINGKVKENLGKAIRGEKVGTRLRKLEHPKIS",Km,[1],70 ± 10 µM
same,kcat,[1],24 s⁻¹
same,kcat/Km,[1],360000 M⁻¹ s⁻¹
same,Km,[5],22 ± 6 µM
same,kcat,[5],0.62 ± 0.03 s⁻¹
same,kcat/Km,[5],28000 M⁻¹ s⁻¹
same,Km,[6],69 ± 10 µM
same,kcat,[6],0.039 ± 0.002 s⁻¹
same,kcat/Km,[6],560 M⁻¹ s⁻¹
same,Km,[7],15 ± 3 µM
same,kcat,[7],0.59 ± 0.03 s⁻¹
same,kcat/Km,[7],39000 M⁻¹ s⁻¹
"MSB (Methanosarcina barkeri 3) (protein, N-His6 fusion, pET28a NdeI/EcoRI, codon-optimised synthetic gene, E. coli Rosetta2, Ni-NTA) MNVSTEPVILKLGGSVITDKAADQGVVREDSLRRIAKEVSEYRGKMIIVHGAGSFGHTYAKKYQLGKVFDPEGAIVTHESVKKLASRVVDTLNEYGVRAIAVHPMCCTICRNGRIESMYLDNIKLMLENGLVPVLHGDVVMDLELRACVLSGDQIVPYLAKELKITRLGLGSAEDGVLDNDGKTVPEITPKTFEDFKHYIRGSGSTDVTGGMLGKVQELLELSKTSCITSYIFNAGKDDNIYRFLNGEPMGTTISPDKRV",Km,[1],32 ± 7 µM
same,kcat,[1],10.1 s⁻¹
same,kcat/Km,[1],310000 M⁻¹ s⁻¹
same,Km,[8],27 ± 5 µM
same,kcat,[8],10.3 ± 0.4 s⁻¹
same,kcat/Km,[8],380000 M⁻¹ s⁻¹
same,Km,[9],45 ± 8 µM
same,kcat,[9],1.23 ± 0.07 s⁻¹
same,kcat/Km,[9],27000 M⁻¹ s⁻¹
same,Km,[10],90 ± 10 µM
same,kcat,[10],9.1 ± 0.4 s⁻¹
same,kcat/Km,[10],100000 M⁻¹ s⁻¹
"CNG (Candidatus Nitrososphaera gargensis Ga9.2) (protein, N-His6 fusion, pET28a NdeI/EcoRI, codon-optimised synthetic gene, E. coli Rosetta2, Ni-NTA) MQKLALIKLGGSVVTFKDKPLAANTGAIDGISRVLAQLSTPAIIVHGGGSFGHYWSVKYDMHTKPAGYDPHGVSVVHESMIALNQIIINSMIRAGLNPYGMPPSVFAAGHKPVAAKIKQIYTMAKSEVMPVTFGDVVHMEGNKYSILSGDALMTMLAKVLRPSRVVFATNVDGIYKDMASRELMREIRVTTGRKKRSIEFSKASGADVTGGMQRKVAEAFKIASRGMDVLMVNGLMPERIAEAVVEGTRLQVGTVVKGSRR",Km,[1],390 ± 90 µM
same,kcat,[1],0.87 s⁻¹
same,kcat/Km,[1],2200 M⁻¹ s⁻¹
same,Km,[11],61 ± 9 µM
same,kcat,[11],1.12 ± 0.05 s⁻¹
same,kcat/Km,[11],18000 M⁻¹ s⁻¹
same,Km,[12],1200 ± 200 µM
same,kcat,[12],0.83 ± 0.07 s⁻¹
same,kcat/Km,[12],700 M⁻¹ s⁻¹
same,Km,[13],21 ± 5 µM
same,kcat,[13],0.81 ± 0.06 s⁻¹
same,kcat/Km,[13],39000 M⁻¹ s⁻¹
